From patent publication US7235648B1, “Yeast cells engineered to produce pheromone system protein surrogates, and uses therefor” (Cadus Technologies, Inc., priority 1993, dated 2007)
Ends that are not written are not given here.

How the values were obtained:
yeast Gβγ = molecular target: T1, yeast Gβγ (Saccharomyces cerevisiae, UniProt P18851+P18852); experiment: Coupling of Gα subunits and hybrids to yeast Gβγ: complementation of gpa1 growth arrest phenotype and fus1-HIS3 transcription; assay type: cell-based
T1 construct: Endogenous Gβγ subunits will be provided by the yeast STE4 and STE18 loci; endogenous in cells; host or cells: S. cerevisiae gpa1 tester strains
T1 sequence (P18851 1-423): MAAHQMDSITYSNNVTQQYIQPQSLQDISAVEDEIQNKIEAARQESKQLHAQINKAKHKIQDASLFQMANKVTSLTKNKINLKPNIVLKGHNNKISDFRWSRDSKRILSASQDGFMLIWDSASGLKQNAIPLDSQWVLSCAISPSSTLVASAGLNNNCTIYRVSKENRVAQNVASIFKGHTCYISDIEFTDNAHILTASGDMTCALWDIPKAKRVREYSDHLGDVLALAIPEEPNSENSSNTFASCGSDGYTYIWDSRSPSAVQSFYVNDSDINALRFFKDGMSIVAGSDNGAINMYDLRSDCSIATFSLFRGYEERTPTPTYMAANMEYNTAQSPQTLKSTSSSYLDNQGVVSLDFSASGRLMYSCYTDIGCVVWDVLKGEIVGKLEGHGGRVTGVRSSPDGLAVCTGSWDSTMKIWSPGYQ
T1 sequence (P18852 1-107 limits assumed): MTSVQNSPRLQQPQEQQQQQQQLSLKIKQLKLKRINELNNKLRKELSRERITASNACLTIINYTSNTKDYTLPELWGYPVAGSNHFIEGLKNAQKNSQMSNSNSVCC
Text: We have tested the hypothesis that there are switch region determinants involved in the association of Gα with Gβγ by constructing a series of hybrid Gα proteins encoding portions of GPA1 and GαS in different combinations (FIG. 11).
Preferably, levels of Gα and Gβγ subunits are balanced. For example, heterologous Gα subunits may be expressed from a low copy (CEN ARS) vector containing the endogenous yeast GPA1 promotor and the GPA1 3′ untranslated region. The minimum criterion, applied to a heterologous Gα subunit with respect to its ability to couple functionally to the yeast pheromone pathway, is that it complement a gpa1 genotype when expressed from the GPA1 promoter on low copy plasmids or from an integrated, single copy gene. In the work described in this application, all heterologous Gα subunits have been assayed in two biological systems.

STE2 receptor = molecular target: T2, STE2 receptor (Saccharomyces cerevisiae, UniProt D6VTK4); experiment: Autocrine MATa yeast (CY588/CY1455) growth on histidine-deficient medium plus aminotriazole, fus1-HIS3 readout; assay type: cell-based; details: for agonist activity on the STE2 receptor, α-Mid-5 library: CY1455, -His medium with 0.5 mM or 1 mM aminotriazole, starburst phenotype
T2 construct: endogenous in cells; host or cells: S. cerevisiae MATa CY588 / CY1455
T2 sequence (D6VTK4 1-431): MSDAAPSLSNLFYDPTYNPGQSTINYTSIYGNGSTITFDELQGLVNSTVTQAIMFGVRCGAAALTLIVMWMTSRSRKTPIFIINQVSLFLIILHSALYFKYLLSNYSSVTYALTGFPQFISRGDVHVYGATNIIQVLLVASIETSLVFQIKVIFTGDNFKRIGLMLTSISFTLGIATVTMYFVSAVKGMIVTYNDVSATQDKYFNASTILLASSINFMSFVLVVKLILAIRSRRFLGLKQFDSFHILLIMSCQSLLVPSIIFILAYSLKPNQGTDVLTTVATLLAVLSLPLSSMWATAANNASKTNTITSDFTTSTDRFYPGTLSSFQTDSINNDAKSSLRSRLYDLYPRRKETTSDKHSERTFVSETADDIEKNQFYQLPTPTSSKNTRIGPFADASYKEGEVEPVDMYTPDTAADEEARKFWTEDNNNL
Text: A MATa strain designed for the expression of peptides in the context of MFα1 (i.e., using the MFα1 expression vector. Cadus 1215) has been constructed. The genotype of this strain, which we designate CY588, is MATa bar1 far1-1 fus1-HIS3 ste14::TRP1 ura3 trp1 leu2 his3. The bar1 mutation eliminates the strain's ability to produce a protease that degrades α-factor and that may degrade some peptides encoded by the cloned oligonucleotides; the far1 mutation abrogates the arrest of growth which normally follows stimulation of the pheromone response pathway; an integrated FUS1-HIS3 hybrid gene provides a selectable signal of activation of the pheromone response pathway; and, finally, the ste14 mutation lowers background of the FUS1-HIS3 readout. The enzymes responsible for processing of the MFα1 precursor in MATα cells are also expressed in MATa cells (Sprague and Thorner, in The Molecular and Cellular Biology of the Yeast Saccharomyces: Gene Expression, 1992. Cold Spring Harbor Press), therefore, CY588 cells should be able to secrete peptides encoded by oligonucleotides expressed from plasmid Cadus 1215.
Experiments were performed to test: 1. the ability of Cadus 1215 to function as a vector for the expression of peptides encoded by synthetic oligonucleotides; 2. the suitability of the oligonucleotides, as designed, to direct the secretion of peptides through the α-factor secretory pathway; 3. the capacity of CY588 to secrete those peptides; and 4. the ability of CY588 to respond to those peptides that stimulate the pheromone response pathway by growing on selective media. These experi-ments were performed using an oligonucleotide which encodes the 13 amino acid α-factor; i.e., the degenerate sequence (NNN)n in the oligonucleotide cloned into Cadus 1215 (see above) was specified (n=13) to encode this pheromone. CY588 was transformed with the resulting plasmid (Cadus 1219), and transformants selected on uracil-deficient medium were transferred to histidine-deficient medium supplemented with a range of concentrations of aminotriazole (an inhibitor of the HIS3 gene product that serves to reduce background growth). […] CY588 is competent for the secretion of a peptide encoded by the (NNN)n sequence of the synthetic oligonucleotide cloned into and expressed from Cadus 1215; and 2. CY588 can, in an autocrine fashion, respond to a secreted peptide which stimulates its pheromone response pathway, in this case by α-factor binding to STE2. Additional experiments were performed to test the utility of autocrine yeast strains in identifying agonists of the Ste2 receptor from among members of two semi-random α-factor libraries, α-Mid-5 and MFα-8. α-Mid-5 Library
To identity peptide members of the α-Mid-5 library that could act as agonists on the STE2 receptor. CY1455, a high transforming version of CY588, was electroporated to enhance uptake of α-Mid-5 DNA. Transformants were selected on uracil-deficient (-Ura) synthetic complete medium and were transferred to histidine-deficient (-His) synthetic complete medium supplemented with 0.5 mM or 1 mM aminotriazole.
Yeast able to grow on -His+aminotriazole medium include (1) yeast which are dependent on the expression of an α-factor variant agonist and (2) yeast which contain mutations that result in constitutive signalling along the pheromone pathway. […] Thus a recognizable formation (termed a “starburst”) results, consisting of a central colony, growing by virtue of autocrine stimulation of the pheromone pathway, surrounded by satellite colonies, growing by virtue of paracrine stimulation of the pheromone pathway by the agonist peptide as that ptpetide diffuses radially fromn the central, secreting colony.
In order to identify the peptide sequence responsible for this “starburst” phenomenon, yeast were transferred from the center of the “starburst” and streaks were made on -Ura medium to obtain single colonies. […]

Row | Molecule | functional complementation of the growth arrest phenotype of gpa1 strains (yeast Gβγ) | agonist activity on the STE2 receptor, α-Mid-5 library (STE2 receptor) | other results
1 | GPA41-S: N-terminal 41 amino acids of GPA1 linked to Gαs sequence 42-394 | functionally complement | – | –
2 | Trp His Tip Leu Thr Leu MetAla Gly Gin Pro Met Tyr (WHWLTLMAGQPMY) [M3] | – | agonists | –
3 | Trp His Trp Leu Gln Leu Lys Pro Gly Gln Pro Met Tyr (chain 1 WHWLQLKPGQPMY; chain 2 WHWLQLKPGQPMY) [α-factor, yeast tridecapeptide mating pheromone, reference compound] | – | – | ability to grow on histidine-deficient media supplemented with aminotriazole (autocrine response, α-factor binding to STE2) (STE2 receptor; CY588 transformed with Cadus 1219, range of aminotriazole concentrations): ability to grow on histidine-deficient media supplemented with aminotriazole
4 | WHWLQLSAGQPMY [M4] | – | agonists | –
5 | WHWLRLQPGQPMY [M9] | – | agonists | –
6 | WHWLRLQSGQPMY [M5] | – | agonists | –
7 | WHWLRLSAGQPMY [M6] | – | agonists | –
8 | WHWLSLDAGQPMY [M2] | – | agonists | –
9 | WHWLSLSPGQPMY [M1] | – | agonists | –
10 | WHWLSLVPGQPMY [M7] | – | agonists | –
11 | WHWLSLYPGQPMY [M8] | – | agonists | –
12 | GPA141-Gαi3: first 41 amino acids of GPA1 fused to human Gαi3 (protein) MGCTVSTQTIGDESDPFLQNKRANDVIEQSLQLEKQRDKNEVKLLLLGAGESGKSTIVKQMKIIHE | functionally complement | – | –
13 | GPA41-Gα16: first 41 amino acids of GPA1 fused to Gα16 (protein) MGCTVSTQTIGDESDPFLQNKRANDVIEQSLQLEKQRDKNELKLLLLGPGESGKSTFIKQMRIIHG | functionally complement | – | –
14 | GPA41-Gαoa: first 41 amino acids of GPA1 fused to Gαoa (protein) MGCTVSTQTIGDESDPFLQNKRANDVIEQSLQLEKQRDKNEVKLLLLGAGESGKSTIVKQMKIIHEDGFSGEDVKQYKPVVYSNTIQSLAAIVRAMDTLGIEYGDKERKADAKMVCDVVSRMEDTEPFSAELLSAMMRLWGDSGIQECFNRSREYQLNDSAKYYLDSLDRIGAADYQPTEQDILRTRVKTTGIVETHFTFKNLHFRLFDVGGQRSERKKWIHCFEDVTAIIFCVALSGYDQVLHEDETTNRMHESLMLFDSICNNKFFIDTSIILFLNKKDLFGEKIKKSPLTICFPEYTGPNTYEDAAAYIQAQFESKNRSPNKEIYCHMTCATDTNNIQVVFDAVTDIIIANNLRGCGLY | do not | – | –
15 | GPA41-Gαob: first 41 amino acids of GPA1 fused to Gαob (protein) MGCTVSTQTIGDESDPFLQNKRANDVIEQSLQLEKQRDKNEVKLLLLGAGESGKSTIVKQMKIIHEDGFSGEDVKQYKPVVYSNTIQSLAAIVRAMDTLGIEYGDKERKADAKMVCDVVSRMEDTEPFSAELLSAMMRLWGDSGIQECFNRSREYQLNDSAKYYLDSLDRIGAADYQPTEQDILRTRVKTTGIVETHFTFKNLHFRLFDVGGQRSERKKWIHCFEDVTAIIFCVALSGYDQVLHEDETTNRMHESLKLFDSICNNKWFTDTSIILFLNKKDIFEEKIKKSPLTICFPEYTGPSAFTEAVAYIQAQYESKNKSAHKEIYTHVTCATDTNNIQFVFDAVTDVIIAKNLRGCGLY | do not | – | –
